The data set concerns the molecule itself. Nature of the data set: SEC. On the technique in general: Size exclusion chromatography separates by hydrodynamic size, large species first.

The values below come from PMC3156286 (Journal of molecular biology, 2011).

As usually defined, the stoichiometry N is the number of molecules, sites or subunits per partner or assembly.

B1: full length Nhp2p (natural protein, S. cerevisiae, UniProt P32495 1-156, looked up)
chain: MGKDNKEHKESKESKTVDNYEARMPAVLPFAKPLASKKLNKKVLKTVKKASKAKNVKRGVKEVVKALRKGEKGLVVIAGDISPADVISHIPVLCEDHSVPYIFIPSKQDLGAAGATKRPTSVVFIVPGSNKKKDGKNKEEEYKESFNEVVKEVQAL
B1: the “stoichiometry N” value came out at 2.
